In publication PMC3723849 (PLoS ONE, 2013):
No end group written: not given here. *: point of attachment. Acm = CC(=O)NC*

B1: Peptide 565 (peptide)
peptide: ARMFLLFLMRC(Acm)IGC(Acm)Y
modifications: not fully specified
notes: 15-mer from phage clone C; Made on Rink amide resin, so a C-terminal amide is to be expected (surmised); source: synthetic peptide (HPLC purified)
B2: Phage clone 2 (round 2 of panning) (peptide)
chain: GTAVASRVYSLHSLM
notes: source: phage clone from the fUSE5 15-mer library, amplified in E. coli K91BluKan; not shown: bacteriophage coat protein (fd phage, fUSE5 library), C-terminal, kept
B3: Peptide 564 (peptide)
peptide: LSFFSC(Acm)WLRRSFSLT
notes: 15-mer from phage clone G; Made on Rink amide resin, so a C-terminal amide is to be expected (surmised); source: synthetic peptide (HPLC purified)

Columns and labels:
[1] = target: T1, His-tagged PSMA (PSMA-His6), soluble ectodomain of prostate-specific membrane antigen (human, UniProt Q04609 44-750); assay: AlphaScreen or HTRF; competition: 563-biotin on streptavidin donor beads, PSMA-His6 on nickel chelate acceptor beads, unlabeled peptide at various concentrations; ambient temperature; 25 mM HEPES, 100 mM NaCl, pH 7.4; IC50 used to approximate KD; settings: both partners purified
T1 construct: prostate-specific membrane antigen (PSMA), human, soluble ectodomain; also called soluble PSMA; poly-histidine tagged PSMA; source: bought: R&D Systems
T1 sequence (Q04609 44-750): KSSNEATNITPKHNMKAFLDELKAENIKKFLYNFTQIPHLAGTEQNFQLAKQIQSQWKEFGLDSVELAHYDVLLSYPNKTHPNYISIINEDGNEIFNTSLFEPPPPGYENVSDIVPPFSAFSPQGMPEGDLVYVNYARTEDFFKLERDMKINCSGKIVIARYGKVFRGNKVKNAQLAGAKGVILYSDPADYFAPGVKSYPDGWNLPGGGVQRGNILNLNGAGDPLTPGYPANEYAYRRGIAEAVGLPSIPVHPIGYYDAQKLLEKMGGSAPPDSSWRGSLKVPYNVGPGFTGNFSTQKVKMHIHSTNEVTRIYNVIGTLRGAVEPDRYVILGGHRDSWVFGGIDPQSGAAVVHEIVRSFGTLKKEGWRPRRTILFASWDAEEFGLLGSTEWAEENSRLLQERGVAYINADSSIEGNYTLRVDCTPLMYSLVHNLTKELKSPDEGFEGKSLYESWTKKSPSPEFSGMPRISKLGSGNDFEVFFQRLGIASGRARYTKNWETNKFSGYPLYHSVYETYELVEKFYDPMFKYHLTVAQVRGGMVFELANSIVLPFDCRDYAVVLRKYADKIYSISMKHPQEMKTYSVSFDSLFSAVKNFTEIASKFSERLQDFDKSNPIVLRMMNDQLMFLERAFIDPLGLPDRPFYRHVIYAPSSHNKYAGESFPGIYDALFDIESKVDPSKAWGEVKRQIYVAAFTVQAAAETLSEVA

[2] = target: T1, His-tagged PSMA (PSMA-His6), soluble …; assay: immunostaining of cells or tissue; competition: LNCaP cells pre-incubated with soluble PSMA-His6 (100 nM, 2 h, 37°C) before the phage clones were added; loss of phage staining read by confocal microscopy (rfu in ten cells); settings: both partners purified

Binder	IC50 [1] [nM]	binding result [2]
B1	> 4830	–
B2	–	binds
B3	1720	–
